Reference: US6429305 (ACADEMIA SINICA, dated 2002)
Blank lines part the entries; values can stand above or below the binder they belong to.

Target: growth hormone receptor on ZFL cells (zebrafish liver cell line) (zebrafish)
Experiment: cell-based or functional assay

increase in cell proliferation relative to no growth hormone added (MTS-formazan conversion assay, ZFL cells): 118%
B1: recombinant ayu (Plecoglossus altivelis) growth hormone (ligand)
chain: MSENQRLFSIAVNRAQHLHLLAQKMFNDFEGNLSPDDRRQMNKIFLQDFCNSDSIISPVDKHETQKSSVQKLLHISFRLVESWEYPSQALSSSLSLSRFSEIPLKLTDLKLGIDTILRGTQDGLLSLEDNEAQQLPPYENYYQNLGGDDNIHRSYELLACFKKDMHKVETYLTVAKCRRSLEANCTLLEHHHHHH

increase in cell proliferation relative to no growth hormone added (MTS-formazan conversion assay, ZFL cells): 58.3%
B2: recombinant yellow grouper (Epinephelus awoara) growth hormone (ligand)
chain: MITDGQRLFSIAVSRVQHLHLLAQRLFSDFESSLQTEEQRQLNKIFLQDFCNSDYIISPIDKHETQRSSVLKLLSISYRLVESWEFPSRSLSGGSAPRNQIFPKLSELKTGILLLIRANQDGAELFPDSSALQLAPYGNYYQSLGADESLRRTYELLACFKKDMHKVETYLTVAKCRLSPEANCTLLEHHHHHH
